Assays:
Human plasmin [1] = target: T1, Human plasmin (human, UniProt P00747 97-810); experiment: comparison of Table 3 Ki values; reference aprotinin (Willmott et al., 1995)
T1 construct: mature

Human plasmin [2] = target: T1, Human plasmin; experiment: progress curves of S-2251 hydrolysis, 2 nM plasmin, n = 6, global fit to Eq. 1-3
Human plasmin [3] = target: T1, Human plasmin; experiment: progress curves of S-2251 hydrolysis, 18 nM plasmin, n = 6, global fit to Eq. 1-3
Human plasmin [4] = target: T1, Human plasmin; experiment: plasmin inhibition kinetics (kinetic profile)

T1 sequence (P00747 97-810): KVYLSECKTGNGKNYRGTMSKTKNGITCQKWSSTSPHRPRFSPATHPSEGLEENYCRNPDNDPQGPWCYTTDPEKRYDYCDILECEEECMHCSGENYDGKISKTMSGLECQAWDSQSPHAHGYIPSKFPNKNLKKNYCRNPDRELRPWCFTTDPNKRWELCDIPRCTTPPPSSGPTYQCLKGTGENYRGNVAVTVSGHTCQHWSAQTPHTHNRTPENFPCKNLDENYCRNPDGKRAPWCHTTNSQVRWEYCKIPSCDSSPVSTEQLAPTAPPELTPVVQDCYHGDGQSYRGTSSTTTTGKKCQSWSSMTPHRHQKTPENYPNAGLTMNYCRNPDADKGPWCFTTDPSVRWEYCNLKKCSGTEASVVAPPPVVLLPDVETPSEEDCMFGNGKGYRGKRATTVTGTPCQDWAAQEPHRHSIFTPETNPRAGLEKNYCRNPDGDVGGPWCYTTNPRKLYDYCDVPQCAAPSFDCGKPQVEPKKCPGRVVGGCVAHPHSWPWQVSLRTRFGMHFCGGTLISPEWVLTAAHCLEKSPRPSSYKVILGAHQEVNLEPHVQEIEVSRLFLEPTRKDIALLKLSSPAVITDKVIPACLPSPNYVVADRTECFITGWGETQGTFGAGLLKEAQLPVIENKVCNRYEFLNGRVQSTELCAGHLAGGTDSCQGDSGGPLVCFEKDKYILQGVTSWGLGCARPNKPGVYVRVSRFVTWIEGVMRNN

Binder | fold difference of Ki against aprotinin (Human plasmin [1]) [fold] | Ki (Human plasmin [2]) [nM] | Ki (Human plasmin [3]) [nM] | Ki (Human plasmin [4]) [nM]
Textilinin 1 (other, also called Txln 1) KDRPDFCELPADTGPCRVRFPSFYYNPDEKKCLEFIYGGCEGNANNFITKEECESTCAA | ~100 | 3.5 | 2.6 | –
Textilinin 2 (other, also called Txln 2) KDRPELCELPPDTGPCRVRFPSFYYNPDEQKCLEFIYGGCEGNANNFITKEECESTCAA | ~100 | 2.2 | 2.8 | 2
